Assays:
Type in all cases: cell-based
SKMel28 = test: PrestoBlue cell viability, anti-IGF-1R antibody with U0126, SKMel28 (melanoma); details: 48 h
Description: (§1) Cells were incubated in 96 well tissue culture plates and cell viability was measured by PrestoBlue cell viability assay (Invitrogen, CA, USA) according to manufacturer's instructions. Fluorescence was measured with excitation at 560 nm and emission at 590 nm. Cell number was calculated from standard curves of fluorescence measurements from known numbers of cells. Triplicate cultures were performed on all experiments.
(§2) The effects of anti-IGF-1R antibodies/MEK inhibitor combination treatment on viability of different types of tumor cells were investigated using PrestoBlue cell viability assay (Invitrogen, CA, USA) according to manufacturer's instructions. (Table 3).
(§3) Cells were incubated in serum free medium for 12 h followed by pretreatment for 60 min without or with 0.5, 1, 3 or 5 μM of the ERK inhibitor U0126, and then treated without or with 100 ng/ml anti-IGF-1R antibodies (Figitumumab or αIR-3 (Calbiochem, US). Cells were incubated in 96 well tissue culture plates for 48 hours and cell viability was measured by PrestoBlue cell viability assay. Fluorescence was measured with excitation at 560 nm and emission at 590 nm. Cell number was calculated from standard curves of fluorescence measurements from known numbers of cells. Triplicate cultures were performed on all experiments. The inhibition induced by anti-IGF-1R antibodies treated cells was calculated as percentage of untreated cells.

ZR75-1 = test: PrestoBlue cell viability, anti-IGF-1R antibody with U0126, ZR75-1 (breast carcinoma); details: ZR75-1 cells, 48 h
Description: as §1, §2, §3

MDA-MB-231 = test: PrestoBlue cell viability, anti-IGF-1R antibody with U0126, MDA-MB-231 (breast carcinoma); details: MDA-MB-231 cells, 48 h
Description: as §1, §2, §3

OMM 2.5 = test: PrestoBlue cell viability, anti-IGF-1R antibody with U0126, OMM 2.5 (liver metastasis of uveal melanoma); details: OMM 2.5 cells, 48 h
Description: as §1, §2, §3

Colo 205 = test: PrestoBlue cell viability, anti-IGF-1R antibody with U0126, Colo 205 (colon carcinoma); details: Colo 205 cells, 48 h
Description: as §1, §2, §3

A549 = test: PrestoBlue cell viability, anti-IGF-1R antibody with U0126, A549 (lung cancer); details: 48 h
Description: as §1, §2, §3

SK-OV-3 = test: PrestoBlue cell viability, anti-IGF-1R antibody with U0126, SK-OV-3 (ovarian carcinoma); details: SK-OV-3 cells, 48 h
Description: as §1, §2, §3

[1] = test system: Ewing's sarcoma (ES) cell lines: SKES, RDES, CADO, A673 and SKNMC; test: Cell viability of Ewing's sarcoma cell lines (PrestoBlue); details: 48 h
Description: (§4) FIG. 1A-FIG. 1C. Effects of Figitumumab (CP-751871 (CP)) treatment on cell viability in ES cell lines. (A) Cell lysates were prepared from the indicated cell lines and analyzed by WB for total IGF-1R expression and GAPDH as a loading control. […] Data correspond to the mean±SEM from three independent experiments. […] (C) Indicated cells were treated without and with 100 ng/ml CP for 48 h in the absence (SFM) or presence of 10% fetal bovine serum (Serum) and cell viability assayed by PrestoBlue reagent. […] Data correspond to the mean±SEM from three independent experiments. Statistical analysis compared with SKBR3: *P<0.05, **P<0.01, **P<0.001.
FIG. 6A-FIG. 6C. […] Cell lysates were prepared from the same samples and analyzed by WB for β-arrestin1 (βarr1) and GAPDH as a loading control. Signals were quantified by densitometry, normalized to GAPDH and presented as a percentage of the doxycycline untreated cells. […] During the experiment, cell lysates were collected at 10 min after CP stimulation and analyzed by WB for P-ERK and total ERK as a loading control and at 12 h after CP stimulation and analyzed by WB for IGF-1R and GAPDH as a loading control. Signals were quantified by densitometry, normalized to the loading control and presented as a percentage of the CP untreated cells. […]

[2] = test system: SKBR3 and IGF-1R knockout MEF cells (R−); test: Cell viability of negative control cells (PrestoBlue); details: 100 ng/ml, 48 h
Description: as §4, §1
IGF-1R expression was investigated in a panel of validated Ewing's sarcoma (ES) cell lines: SKES, RDES, CADO, A673 and SKNMC. Breast cancer cell line SKBR3, expressing low IGF-1R levels and IGF-1R knockout MEF cells (R−) were used as negative controls. […]

[3] = test system: IGF-1R, AKT and ERK phosphorylation; test: IGF-1R signaling activation in ES cell lines (WB for P-IGF-1R, P-AKT, P-ERK)
[4] = U0126 0 μM (60 min pretreatment)
[5] = U0126 0.5 μM (60 min pretreatment)
[6] = U0126 1 μM (60 min pretreatment)
[7] = U0126 3 μM (60 min pretreatment)
[8] = U0126 5 μM (60 min pretreatment)
[9] = serum starved ES cells, stimulation up to 60 min

B1: CP-751,871: anti-IGF-1R antibody figitumumab (Pfizer), IGF-1R antagonist (antibody, chains of the INN, looked up)
heavy: EVQLLESGGGLVQPGGSLRLSCTASGFTFSSYAMNWVRQAPGKGLEWVSAISGSGGTTFYADSVKGRFTISRDNSRTTLYLQMNSLRAEDTAVYYCAKDLGWSDSYYYYYGMDVWGQGTTVTVSSASTKGPSVFPLAPCSRSTSESTAALGCLVKDYFPEPVTVSWNSGALTSGVHTFPAVLQSSGLYSLSSVVTVPSSNFGTQTYTCNVDHKPSNTKVDKTVERKCCVECPPCPAPPVAGPSVFLFPPKPKDTLMISRTPEVTCVVVDVSHEDPEVQFNWYVDGVEVHNAKTKPREEQFNSTFRVVSVLTVVHQDWLNGKEYKCKVSNKGLPAPIEKTISKTKGQPREPQVYTLPPSREEMTKNQVSLTCLVKGFYPSDIAVEWESNGQPENNYKTTPPMLDSDGSFFLYSKLTVDKSRWQQGNVFSCSVMHEALHNHYTQKSLSLSPG
light: DIQMTQFPSSLSASVGDRVTITCRASQGIRNDLGWYQQKPGKAPKRLIYAASRLHRGVPSRFSGSGSGTEFTLTISSLQPEDFATYYCLQHNSYPCSFGQGTKLEIKRTVAAPSVFIFPPSDEQLKSGTASVVCLLNNFYPREAKVQWKVDNALQSGNSQESVTEQDSKDSTYSLSSTLTLSKADYEKHKVYACEVTHQGLSSPVTKSFNRGEC
Percentage inhibition of antibody treated cells (100 ng/ml) (SKMel28; [4]): 5%
Percentage inhibition of antibody treated cells (100 ng/ml) (SKMel28; [5]): 15%
Percentage inhibition of antibody treated cells (100 ng/ml) (SKMel28; [6]): 17%
Percentage inhibition of antibody treated cells (100 ng/ml) (SKMel28; [7]): 25%
Percentage inhibition of antibody treated cells (100 ng/ml) (SKMel28; [8]): 29%
Percentage inhibition of antibody treated cells (100 ng/ml) (ZR75-1; [4]): 5%
Percentage inhibition of antibody treated cells (100 ng/ml) (ZR75-1; [5]): 9%
Percentage inhibition of antibody treated cells (100 ng/ml) (ZR75-1; [6]): 12%
Percentage inhibition of antibody treated cells (100 ng/ml) (ZR75-1; [7]): 12%
Percentage inhibition of antibody treated cells (100 ng/ml) (ZR75-1; [8]): 15%
Percentage inhibition of antibody treated cells (100 ng/ml) (MDA-MB-231; [4]): 8%
Percentage inhibition of antibody treated cells (100 ng/ml) (MDA-MB-231; [5]): 12%
Percentage inhibition of antibody treated cells (100 ng/ml) (MDA-MB-231; [6]): 15%
Percentage inhibition of antibody treated cells (100 ng/ml) (MDA-MB-231; [7]): 22%
Percentage inhibition of antibody treated cells (100 ng/ml) (MDA-MB-231; [8]): 32%
Percentage inhibition of antibody treated cells (100 ng/ml) (OMM 2.5; [4]): 7%
Percentage inhibition of antibody treated cells (100 ng/ml) (OMM 2.5; [5]): 33%
Percentage inhibition of antibody treated cells (100 ng/ml) (OMM 2.5; [6]): 65%
Percentage inhibition of antibody treated cells (100 ng/ml) (OMM 2.5; [7]): 87%
Percentage inhibition of antibody treated cells (100 ng/ml) (OMM 2.5; [8]): 89%
Percentage inhibition of antibody treated cells (100 ng/ml) (Colo 205; [4]): 21%
Percentage inhibition of antibody treated cells (100 ng/ml) (Colo 205; [5]): 28%
Percentage inhibition of antibody treated cells (100 ng/ml) (Colo 205; [6]): 34%
Percentage inhibition of antibody treated cells (100 ng/ml) (Colo 205; [7]): 45%
Percentage inhibition of antibody treated cells (100 ng/ml) (Colo 205; [8]): 67%
Percentage inhibition of antibody treated cells (100 ng/ml) (A549; [4]): 40%
Percentage inhibition of antibody treated cells (100 ng/ml) (A549; [5]): 56%
Percentage inhibition of antibody treated cells (100 ng/ml) (A549; [6]): 77%
Percentage inhibition of antibody treated cells (100 ng/ml) (A549; [7]): 88%
Percentage inhibition of antibody treated cells (100 ng/ml) (A549; [8]): 98%
Percentage inhibition of antibody treated cells (100 ng/ml) (SK-OV-3; [4]): 17%
Percentage inhibition of antibody treated cells (100 ng/ml) (SK-OV-3; [5]): 25%
Percentage inhibition of antibody treated cells (100 ng/ml) (SK-OV-3; [6]): 35%
Percentage inhibition of antibody treated cells (100 ng/ml) (SK-OV-3; [7]): 55%
Percentage inhibition of antibody treated cells (100 ng/ml) (SK-OV-3; [8]): 67%
Cell viability (cell number) of ES cell lines ([1]; 100 ng/ml, presence or absence of serum, all ES cell lines): decreased cell number
Sensitivity (cell viability) of combined treatment with MEK inhibitor U0126 versus CP-751,871 alone ([1]; ES cell lines, U0126 pre-treatment 60 min, 100 ng/ml CP): increased sensitivity
Cell viability of negative control cells [2]: unaffected
AKT phosphorylation [3, 9]: undetectable
IGF-1R phosphorylation [3, 9]: undetectable
ERK phosphorylation ([3]; serum starved cells, up to 60 min, all ES cell lines): clear ERK phosphorylation signals

Reference: patent publication US20140335077A1, “Compositions and Methods for the Treatment of Cancer Using IGF-IR Antagonists and MAPK/ERK Inhibitors” (priority 2013, published 2014)
